Biological target: paDXPS as measured by native mass spectrometry (Pseudomonas aeruginosa) (UniProt Q9KGU7)
Experiment: native MS

paDXPS as measured by native mass spectrometry (from UniProt Q9KGU7 1-627) (enzyme)
stoichiometry N: 2

Source: paper doi:10.1101/2022.07.04.498669
